{
  "source": "patent US20030113787A1",
  "about": "(Takeda / Millennium, published 2003)",
  "binders": {"B1": {"name": "CARD10-CARD/BD (other, yeast)", "chain": "MKLLSSIEQACDICRLKKLKCSKEKPKCAKCLKNNWECRYSPKTKRSPLTRAHLTEVESRLERLEQLFLLIFPREDLDMILKMDSLQDIKALLTGLFVQDNVNKDAVTDRLASVETDMPLTLRQHRISATSSSEESSNKGQRQLTVSMPGRAEAGEAEEEAGAGSGSEAEEDALWERIEGVRHRLARALNPAKLTPYLRQCRVIDEQDEEEVLSTYRFPCRVNRTGRLMDILRCRGKRGYEAFLEALEFYYPEHFTLLTGQEPAQRCSMILDEEGPEGLTQFLMT"}, "B2": {"name": "HA-tagged Bcl-10 (other, UniProt O95999 1-233, looked up, not shown: small tags and cut ends)", "chain": "MEPTAPSLTEEDLTEVKKDALENLRVYLCEKIIAERHFDHLRAKKILSREDTEEISCRTSSRKRAGKLLDYLQENPKGLDTLVESIRREKTQNFLIQKITDEVLKLRNIKLEHLKGLKCSSCEPFPDGATNNLSRSNSDESNFSEKLRASTVMYHPEGESSTTPFFSTNSSLNLPVLEVGRTENTIFSSTTLPRPGDPGAPPLPPDLQLEEEGTCANSSEMFLPLRSRTVSRQ", "notes": "Expressed in Rat-1 or other transfected cells; also called pCI-Bcl-10-HA; HA-Bcl-10"}, "B3": {"name": "Flag-tagged Bcl-10 (other, UniProt O95999 1-233, looked up, not shown: small tags and cut ends)", "chain": "B2 chain", "notes": "Expressed in 293T cells; also called Flag-Bcl-10"}},
  "key": {"Bcl-10-CARD/AD": {"molecular_target": "T1, Bcl-10-CARD/AD (mouse, UniProt Q04207 364-549; O95999 1-104)", "T1 sequence (looked up)": "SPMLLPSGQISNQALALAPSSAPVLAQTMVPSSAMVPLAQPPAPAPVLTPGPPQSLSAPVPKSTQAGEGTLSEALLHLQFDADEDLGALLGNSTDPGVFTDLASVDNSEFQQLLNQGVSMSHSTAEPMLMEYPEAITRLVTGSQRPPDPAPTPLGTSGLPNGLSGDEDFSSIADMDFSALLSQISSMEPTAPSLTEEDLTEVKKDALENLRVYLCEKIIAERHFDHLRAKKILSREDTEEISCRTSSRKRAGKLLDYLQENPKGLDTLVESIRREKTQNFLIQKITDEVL", "assay": "cell-based or functional assay"}, "Myc-CARD-11/CC [1]": {"molecular_target": "T2, Myc-CARD-11/CC (human, UniProt Q9BXL7 129-449)", "T2 construct": "NOT the whole entry: only the coiled-coil region stood in the assay", "T2 sequence": "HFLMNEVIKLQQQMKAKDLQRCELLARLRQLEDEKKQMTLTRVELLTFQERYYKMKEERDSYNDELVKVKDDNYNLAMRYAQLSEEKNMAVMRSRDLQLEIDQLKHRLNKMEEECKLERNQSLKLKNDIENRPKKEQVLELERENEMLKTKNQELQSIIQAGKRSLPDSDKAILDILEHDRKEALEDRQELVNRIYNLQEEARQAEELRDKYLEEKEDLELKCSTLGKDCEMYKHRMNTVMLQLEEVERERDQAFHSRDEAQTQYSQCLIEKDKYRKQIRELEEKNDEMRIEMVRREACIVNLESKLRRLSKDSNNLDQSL", "assay": "co-localization by immunofluorescence in co-transfected cells"}, "[2]": {"molecular_target": "T3, Myc-tagged CARD-11 (full-length) (human, UniProt Q9BXL7 8-1154)", "T3 construct": "Used in the co-localization and Bcl-10 phosphorylation experiments; also called full-length CARD-11", "T3 sequence": "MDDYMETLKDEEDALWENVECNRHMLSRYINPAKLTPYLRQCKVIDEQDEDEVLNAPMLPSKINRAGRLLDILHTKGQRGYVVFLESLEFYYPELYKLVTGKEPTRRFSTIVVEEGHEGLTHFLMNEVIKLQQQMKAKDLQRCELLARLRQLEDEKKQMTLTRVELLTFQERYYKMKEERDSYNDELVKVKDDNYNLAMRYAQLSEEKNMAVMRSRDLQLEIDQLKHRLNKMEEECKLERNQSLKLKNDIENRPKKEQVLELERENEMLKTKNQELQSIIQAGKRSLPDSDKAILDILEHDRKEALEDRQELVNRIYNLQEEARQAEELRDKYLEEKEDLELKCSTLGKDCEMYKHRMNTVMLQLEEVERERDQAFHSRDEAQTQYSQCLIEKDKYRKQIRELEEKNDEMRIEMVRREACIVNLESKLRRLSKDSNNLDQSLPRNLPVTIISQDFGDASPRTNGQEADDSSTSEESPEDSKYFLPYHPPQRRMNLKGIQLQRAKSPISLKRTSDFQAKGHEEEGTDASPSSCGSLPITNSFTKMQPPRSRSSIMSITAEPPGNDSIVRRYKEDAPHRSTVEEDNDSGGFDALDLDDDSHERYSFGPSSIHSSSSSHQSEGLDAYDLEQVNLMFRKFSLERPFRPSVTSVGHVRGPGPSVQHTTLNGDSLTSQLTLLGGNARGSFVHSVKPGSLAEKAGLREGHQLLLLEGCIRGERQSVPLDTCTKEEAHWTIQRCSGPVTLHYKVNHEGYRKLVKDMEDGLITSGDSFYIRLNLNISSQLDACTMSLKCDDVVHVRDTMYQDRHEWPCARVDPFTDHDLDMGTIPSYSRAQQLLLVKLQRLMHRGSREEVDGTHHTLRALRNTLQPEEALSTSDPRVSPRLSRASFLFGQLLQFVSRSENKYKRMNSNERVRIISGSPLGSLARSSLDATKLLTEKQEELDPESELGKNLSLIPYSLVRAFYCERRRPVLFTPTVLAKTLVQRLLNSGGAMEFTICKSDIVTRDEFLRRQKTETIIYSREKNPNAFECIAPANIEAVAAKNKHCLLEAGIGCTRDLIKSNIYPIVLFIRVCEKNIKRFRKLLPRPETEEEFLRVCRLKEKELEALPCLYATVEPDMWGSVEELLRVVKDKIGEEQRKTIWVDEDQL", "assay": "co-localization by immunofluorescence in co-transfected cells"}, "CARD-11/DCARD": {"molecular_target": "T4, CARD-11/DCARD (human, UniProt Q9BXL7 134-1154)", "T4 construct": "also called CARD-11 truncation mutant lacking the N-terminal CARD", "T4 sequence": "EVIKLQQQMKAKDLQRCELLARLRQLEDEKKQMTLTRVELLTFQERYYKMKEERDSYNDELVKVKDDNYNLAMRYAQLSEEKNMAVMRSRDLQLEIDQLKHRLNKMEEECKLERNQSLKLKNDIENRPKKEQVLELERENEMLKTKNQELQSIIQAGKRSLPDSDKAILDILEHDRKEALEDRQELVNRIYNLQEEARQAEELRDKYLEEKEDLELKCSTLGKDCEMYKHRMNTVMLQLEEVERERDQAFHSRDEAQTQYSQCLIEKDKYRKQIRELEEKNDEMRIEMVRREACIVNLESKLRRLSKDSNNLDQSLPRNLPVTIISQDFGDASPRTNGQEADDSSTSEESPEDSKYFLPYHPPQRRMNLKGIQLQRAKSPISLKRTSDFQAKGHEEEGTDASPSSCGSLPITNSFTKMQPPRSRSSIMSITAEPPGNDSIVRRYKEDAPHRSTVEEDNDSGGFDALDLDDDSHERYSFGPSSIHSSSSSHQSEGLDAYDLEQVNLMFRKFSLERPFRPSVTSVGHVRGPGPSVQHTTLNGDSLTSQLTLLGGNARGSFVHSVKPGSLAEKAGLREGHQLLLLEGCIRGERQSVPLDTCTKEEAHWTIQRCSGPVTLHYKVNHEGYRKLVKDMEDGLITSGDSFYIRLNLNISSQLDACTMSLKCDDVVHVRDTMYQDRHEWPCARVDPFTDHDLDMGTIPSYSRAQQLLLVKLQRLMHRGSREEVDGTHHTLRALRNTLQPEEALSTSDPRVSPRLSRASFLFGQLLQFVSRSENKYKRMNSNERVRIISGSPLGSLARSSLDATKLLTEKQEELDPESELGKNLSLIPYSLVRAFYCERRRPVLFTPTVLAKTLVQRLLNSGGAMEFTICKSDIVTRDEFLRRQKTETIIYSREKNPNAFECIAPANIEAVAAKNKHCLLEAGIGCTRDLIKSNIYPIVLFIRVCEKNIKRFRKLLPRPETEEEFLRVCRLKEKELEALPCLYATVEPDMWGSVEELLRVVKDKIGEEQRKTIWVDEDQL", "assay": "co-localization by immunofluorescence in co-transfected cells"}, "Myc-tagged CARD-9": {"molecular_target": "T5, Myc-tagged CARD-9 (human, UniProt Q9H257 1-536)", "T5 construct": "Expressed in 293T or Rat-1 cells; Species not restated; also called pCI-Card-9-myc", "T5 sequence": "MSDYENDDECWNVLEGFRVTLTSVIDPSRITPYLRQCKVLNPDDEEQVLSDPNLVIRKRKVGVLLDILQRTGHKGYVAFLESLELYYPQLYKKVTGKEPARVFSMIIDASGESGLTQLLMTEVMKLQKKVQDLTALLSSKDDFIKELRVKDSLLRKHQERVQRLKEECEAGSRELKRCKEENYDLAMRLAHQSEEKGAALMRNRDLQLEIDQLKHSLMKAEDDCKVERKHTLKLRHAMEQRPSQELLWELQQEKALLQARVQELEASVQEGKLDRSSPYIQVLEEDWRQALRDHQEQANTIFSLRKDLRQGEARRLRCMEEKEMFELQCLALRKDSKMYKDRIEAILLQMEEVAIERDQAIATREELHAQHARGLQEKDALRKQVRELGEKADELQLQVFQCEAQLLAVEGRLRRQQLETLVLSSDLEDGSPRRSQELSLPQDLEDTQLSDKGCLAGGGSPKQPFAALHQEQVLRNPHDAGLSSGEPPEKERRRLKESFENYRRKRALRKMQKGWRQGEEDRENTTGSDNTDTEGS", "assay": "co-localization by immunofluorescence in co-transfected Rat-1 cells", "description": "To determine the cellular localization of CARD-9, and to confirm that CARD-9 associated intracellularly with Bcl-10 when the two proteins were co-expressed, Rat-1 cells were transfected with a Myc-tagged vector encoding full-length CARD-9, and with an HA-tagged vector encoding full-length Bcl-10. The expressed proteins were detected using a mixture of a monoclonal anti-Myc antibody and a polyclonal rabbit anti-HA antibody. Briefly, Rat-1 cells were transfected in glass chamber slides (BioCoat, Becton-Dickinson Labware) with pCI-Bcl-10-HA or pCI-Card-9-myc, alone or together, using FuGENE-6 (Roche Molecular Biochemicals) for 20 hours. Cells were fixed in 4% paraformaldehyde, permeabilized and blocked in buffer containing 0.4% Trition X-100, and sequentially incubated with primary and secondary antibodies. Antibodies were rabbit anti-HA polyclonal Y-11 (Santa Cruz Biotechnology), mouse anti-myc monoclonal 9E10 (Oncogene Research Products), Alexa-488 Goat anti-mouse IgG (Molecular Probes) and Texas-Red Goat anti-rabbit IgG (Jackson Immunoresearch Laboratories). No cross-reactivity was observed between any of the antibodies. Nuclei were stained with Hoechst 33258. […]"}, "Myc-CARD-11/CC [3]": {"molecular_target": "T2, Myc-CARD-11/CC", "assay": "co-immunoprecipitation from transfected 293T cells (anti-Flag IP, anti-Myc blot)", "procedure": "The interaction between CARD-11 and Bcl-10 was next examined in cells by overexpressing CARD-11 is cells and performing co-immunoprecipitation assays. These assays were performed as follows. Plasmids expressing CARD-11 with C-terminal Myc epitopes were constructed using pCMV-Tag 5A (Stratagene Corp., La Jolla, Calif.). Constructs encoding epitope-tagged Bcl-10 were described previously (Srinivasula et al., […] J. Biol. Chem. 274:17946). 293T cells transfected with the plasmids were lysed in 50 mM Tris, pH 8.0, 120 mM NaCl, 1 mM EDTA, 0.5% Nonidet P-40 buffer and incubated with anti-Flag-M2 monoclonal antibody (Sigma Co.). The immune complexes were precipitated with protein G-Sepharose (Amersham Pharmacia Bio), washed extensively, and then subjected to SDS-polyacrylamide gel electrophoresis and immunoblotted with polyclonal anti-Myc antibodies (Santa Cruz Biotechnology, Inc.)."}},
  "data": [
    {"binder": "B1", "values": [
      {"measurement": "relative luciferase activity (mammalian two-hybrid reporter)", "setting": "Bcl-10-CARD/AD", "result": 340, "unit": "fold"}
    ]},
    {"binder": "B2", "values": [
      {"measurement": "binding result", "setting": "Myc-CARD-11/CC [1]", "result": "no binding"},
      {"measurement": "binding result", "setting": "[2]", "result": "binds"},
      {"measurement": "binding result", "setting": "CARD-11/DCARD", "result": "no binding"},
      {"measurement": "binding result", "setting": "Myc-tagged CARD-9", "result": "binds"}
    ]},
    {"binder": "B3", "values": [
      {"measurement": "binding result", "setting": "Myc-CARD-11/CC [3]", "result": "no binding"}
    ]}
  ]
}
